Assay [1] concerns the target human IgE (human). Description: SPR, pH 5.8, 3 uM Ca, 37C.
Assay [2] has as its target human IgE (human). Description: SPR, pH 5.8, 1.2 mM Ca, 37C.
Assay [3] has as its target human IgE (human). Description: SPR, pH 7.4, 1.2 mM Ca, 37C. Background: In SPR one partner is held on a chip, and binding of the other changes the refractive index at the surface.
The target in another assay is T1, human FcγRIIa type H (human, UniProt P12318).
T1 chain: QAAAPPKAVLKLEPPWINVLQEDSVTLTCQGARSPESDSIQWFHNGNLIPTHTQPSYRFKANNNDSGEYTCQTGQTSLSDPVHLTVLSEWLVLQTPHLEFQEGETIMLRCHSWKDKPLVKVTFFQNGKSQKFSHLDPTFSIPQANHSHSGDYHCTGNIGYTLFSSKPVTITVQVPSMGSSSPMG
Description: SPR.

Assay [4] addresses T2, human FcγRIa (human, UniProt P12314).
T2 chain: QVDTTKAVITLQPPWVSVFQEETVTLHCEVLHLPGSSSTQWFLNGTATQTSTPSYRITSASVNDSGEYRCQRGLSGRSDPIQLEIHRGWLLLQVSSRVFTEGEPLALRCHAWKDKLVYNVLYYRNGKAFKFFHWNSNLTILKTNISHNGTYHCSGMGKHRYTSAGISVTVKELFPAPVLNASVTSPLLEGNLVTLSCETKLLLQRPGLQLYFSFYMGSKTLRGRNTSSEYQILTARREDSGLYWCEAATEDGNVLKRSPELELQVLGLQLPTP
Description: SPR.

Assay [5] deals with T2, human FcγRIa. Briefly: SPR.
The target of the next assay is T3, human FcγRIIb (human, UniProt P31994).
T3 chain: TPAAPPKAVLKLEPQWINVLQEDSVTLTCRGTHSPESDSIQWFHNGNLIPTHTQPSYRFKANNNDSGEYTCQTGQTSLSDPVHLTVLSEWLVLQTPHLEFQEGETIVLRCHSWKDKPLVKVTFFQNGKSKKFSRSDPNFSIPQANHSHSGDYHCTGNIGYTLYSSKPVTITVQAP
Description: SPR.

Assay [6] has as its target T2, human FcγRIa. Briefly: SPR.
For assay [7], the target named is human IgA (human). Briefly: SPR, pH 5.8, 3 uM Ca, 37C.
Assay [8] deals with human IgA (human). Description: SPR, pH 7.4, 3 uM Ca, 37C.
The target in assay [9] is human IgA (human). Briefly: SPR, pH 5.8, 1.2 mM Ca, 37C.
Assay [10] has as its target human IgA (human). Briefly: SPR, pH 7.4, 1.2 mM Ca, 37C.
In the next assay the target is T4, human IL-6 receptor (human, UniProt P08887).
T4 chain: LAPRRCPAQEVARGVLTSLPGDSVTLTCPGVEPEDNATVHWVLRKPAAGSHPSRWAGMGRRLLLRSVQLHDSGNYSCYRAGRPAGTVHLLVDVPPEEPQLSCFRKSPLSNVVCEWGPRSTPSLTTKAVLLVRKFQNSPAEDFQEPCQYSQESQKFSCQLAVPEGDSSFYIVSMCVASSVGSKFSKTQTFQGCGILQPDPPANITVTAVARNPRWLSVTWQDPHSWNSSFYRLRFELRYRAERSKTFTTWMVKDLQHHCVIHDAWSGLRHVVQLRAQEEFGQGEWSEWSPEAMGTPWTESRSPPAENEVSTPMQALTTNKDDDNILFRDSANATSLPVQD
Briefly: SPR, pH 7.4, 3 uM Ca, 37C.

Where a chain is given by its changes, count along the chain named. Read-outs that look alike come from different tables or passages of the source.

Sequence of human IgA (human) (VH, as listed by the source): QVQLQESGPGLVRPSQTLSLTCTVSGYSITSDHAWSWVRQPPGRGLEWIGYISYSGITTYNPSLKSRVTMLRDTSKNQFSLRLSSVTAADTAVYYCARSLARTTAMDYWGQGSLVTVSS

B1: 278-IgG1 (clone 278) (antibody, V domains shown)
VH: QSLEESGGRLVTPGTPLTLTCTASGFSLSSYHMSWVRQAPGKGLEWIGVINSAGNTYYASWAKGRFTVSKTSTTVDLNLTSLTTEDTATYFCARYVFSSGSHDIWGPGTLVTVSS
VL: AYDMTQTPASVEVAVGGTVTIKCQASQSIGSWLAWYQQKPGQPPKELIYGTSTLESGVPSRFIGSGSGTEFTLTISGVECADAATYYCQQGYSEDNIDNAFGGGTEVVVKR
For the molecule B1, the Kd with human IgE [1] came out at 3900 nM; in the assay with human IgE [2], 2000 nM; with human IgE [3], 2.4 nM.

B2: BP438 (antibody)
chain 1: QVQLQESGPGLVKPSETLSLTCAVSGHSISHDHAWSWVRQPPGEGLEWIGFISYSGITNYNPSLQGRVTISRDNSKNTLYLQMNSLRAEDTAVYYCARSLARTTAMDYWGEGTLVTVSSASTKGPSVFPLAPSSKSTSGGTAALGCLVKDYFPEPVTVSWNSGALTSGVHTFPAVLQSSGLYSLSSVVTVPSSSLGTQTYICNVNHKPSNTKVDKKVEPKSCDKTHTCPPCPAPDLLGDDSVFLFPPKPKDTLMISRTPEVTCVVVDVAEEDGEVKFNWYVDGVEVHNAKTKPREEQYNSTYRVVSVLTVLHQDWLNGKEYKCKVSNKALPRPTEKTISKAKGQPREPQVYTLPPSRDELTKNQVSLTCLVKGFYPSDIAVEWESNGQPENNYKTTPPVLDSDGSFFLYSKLTVDKSRWQQGNVFSCSVMHEALHNHYTQESLSLSP
chain 2: not shown
The molecule B2 returned an equilibrium dissociation constant (Kd) in the assay with human FcγRIIa type H of 1600 nM.

B3: BP456 (antibody)
chain 1: B2 chain 1 with T334I, P398M
chain 2: not shown
Take B3: in the assay with human FcγRIa [4], binding was put at a Kd of 0.6 nM.

B4: BP447 (antibody)
chain 1: B2 chain 1 with T334I, P398A
chain 2: not shown
In the case of B4, the Kd with human FcγRIa [4] is 0.9 nM.

B5: BP384 (antibody)
chain 1: B2 chain 1 with A269S, E270D, Y298D, T334I, K336R
chain 2: not shown
As to B5, binding with human FcγRIa [5] was put at a Kd of 3 nM.

B6: BP468 (antibody)
chain 1: B2 chain 1 with A269S, E270D, Y298D, T334I, K336T
chain 2: not shown
For B6, the Kd with human FcγRIIb was determined as 40 nM.

B7: BP267 (antibody)
chain 1: B2 chain 1 with A269S, R332A, T334I
chain 2: not shown
In turn, B7 came in with an equilibrium dissociation constant (Kd) with human FcγRIa [6] of 4 nM.

B8: GA2-IgG1 (antibody, V domains shown)
VH: QVQLVQSGAEVKKPGSSVKVSCKASGGTFSSYAISWVRQAPGQGLEWMGGIIPIFGTANYAQKFQGRVTITADESTSTAYMELSSLRSEDTAVYYCARPRWETAISSDAFDIWGQGTMVTVSS
VL: DIQMTQSPSSLSASVGDRVTITCRASQSISDDLNWYQQKPGKAPKLLIYEASNLQSGVPSRFSGSGSGTDFTLTISSLQPEDFATYYCQQHSSSPLTFGQGTKVEIKR
For B8, the Kd with human IgA [7] stood at 5000 nM; in the assay with human IgA [8], 6700 nM; with human IgA [9], 4000 nM; with human IgA [10], 39 nM.

B9: 6RL#9-IgG1 (antibody, V domains shown)
VH: QVQLVQSGAEVKKPGASVKVSCKASGYTFTSYYMHWVRQAPGQGLEWMGIINPSGGSTSYAQKFQGRVTMTRDTSTSTVYMELSSLRSEDTAVYYCARDDPGGGEYYFDYWGQGTLVTVSS
VL: QSVLTQPPSVSGAPGQRVTISCTGSRSNMGAGYDVHWYQLLPGAAPKLLISHNTHRPSGVPDRFSGSKSGASASLAITGLQAEDEADYYCQSHDSSLSAVVFGGGTKLTVLS
In turn, B9 showed a Kd with human IL-6 receptor above 31000 nM.

B10: FH4-IgG1 (antibody, V domains shown)
VH: QVQLVQSGAEVKKPGSSVKVSCKASGGTFSSYAISWVRQAPGQGLEWMGGIIPIFGTANYAQKFQGRVTITADESTSTAYMELSSLRSEDTAVYYCARERDYYDSSGYYDAFDIWGQGTMVTVSS
VL: ETTVTQSPSFLSASVGDRVTITCITTTDIDDDMNWFQQEPGKAPKLLISEGNILRPGVPSRFSSSGYGTDFTLTISKLQPEDFATYYCLQSDNLPFTFGQGTKLEIKR
With B10, the equilibrium dissociation constant (Kd) with human IL-6 receptor is above 34000 nM.

The term Kd denotes a measure of binding affinity in units of concentration. Higher therefore signals weaker binding.
